Literature values in article PMC11105488.

What was measured:
[1] = target: FGFR1c (Homo sapiens) (UniProt P11362)
[2] = target: FGFR4 (Homo sapiens) (UniProt P22455)
[3] = target: FGFR2c (Homo sapiens) (UniProt P21802)
Chain of UniProt P21802 (P21802 22-377): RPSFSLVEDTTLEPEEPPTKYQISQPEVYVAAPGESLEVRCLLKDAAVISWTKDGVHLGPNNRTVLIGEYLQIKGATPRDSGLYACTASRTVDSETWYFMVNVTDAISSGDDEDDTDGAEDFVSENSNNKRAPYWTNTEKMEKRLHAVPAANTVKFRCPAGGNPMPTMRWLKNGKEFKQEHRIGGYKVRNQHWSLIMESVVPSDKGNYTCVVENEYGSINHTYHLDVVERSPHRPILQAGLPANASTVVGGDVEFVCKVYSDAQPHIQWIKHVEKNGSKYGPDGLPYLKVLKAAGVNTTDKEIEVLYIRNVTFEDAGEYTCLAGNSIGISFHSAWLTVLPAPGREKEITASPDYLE

Chain of UniProt P11362 (P11362 22-376): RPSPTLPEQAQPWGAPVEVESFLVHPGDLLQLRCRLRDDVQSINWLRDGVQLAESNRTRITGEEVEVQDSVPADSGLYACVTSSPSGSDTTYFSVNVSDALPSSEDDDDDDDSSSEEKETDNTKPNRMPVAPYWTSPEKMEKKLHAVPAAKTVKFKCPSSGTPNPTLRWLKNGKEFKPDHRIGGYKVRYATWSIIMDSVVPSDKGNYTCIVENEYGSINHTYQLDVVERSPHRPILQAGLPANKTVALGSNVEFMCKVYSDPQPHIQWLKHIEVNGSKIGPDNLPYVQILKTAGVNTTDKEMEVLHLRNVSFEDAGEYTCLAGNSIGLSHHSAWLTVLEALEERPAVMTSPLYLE
Chain of UniProt P22455 (P22455 22-369): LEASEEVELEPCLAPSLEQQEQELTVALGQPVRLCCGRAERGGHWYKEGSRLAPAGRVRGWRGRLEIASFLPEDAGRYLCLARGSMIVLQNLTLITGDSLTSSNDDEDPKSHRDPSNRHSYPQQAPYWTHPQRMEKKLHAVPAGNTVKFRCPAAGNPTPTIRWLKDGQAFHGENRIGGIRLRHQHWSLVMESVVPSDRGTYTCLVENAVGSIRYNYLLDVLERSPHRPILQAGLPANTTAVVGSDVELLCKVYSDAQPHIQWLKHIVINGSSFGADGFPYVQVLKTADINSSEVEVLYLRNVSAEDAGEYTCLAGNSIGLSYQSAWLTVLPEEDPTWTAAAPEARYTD

FGF23 (from UniProt Q9GZV9)
Kd [1]: 0.7 µM | Kd [2]: 0.2 µM | Kd [3]: 0.2 µM
